Source: publication PMC546141

Target: T1, mPrrp-2xRBD (mouse, UniProt Q9JII5 1-201)
T1 sequence: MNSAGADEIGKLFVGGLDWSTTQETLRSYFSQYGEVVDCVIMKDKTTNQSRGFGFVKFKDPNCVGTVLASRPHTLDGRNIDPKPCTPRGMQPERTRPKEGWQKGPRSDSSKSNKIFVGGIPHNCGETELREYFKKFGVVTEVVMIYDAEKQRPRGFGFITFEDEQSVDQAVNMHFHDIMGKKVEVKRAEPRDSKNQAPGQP
Assay: EMSA

Row | Binder | Kd [nM]
1 | S-13 26-73 U52C (structured_RNA) RNA: GGCAUAGCCAAAUAGUUUGUGGCCUUAGCUUAGUAUAGCUGCGGGCUAUGGGAUC | ~55
2 | S-13 26-73 U53C (structured_RNA) RNA: GGCAUAGCCAAAUAGUUUGUGGCCUUAGUCUAGUAUAGCUGCGGGCUAUGGGAUC | ~75
